Patent publication US20230093708A1, “PROTEIN NANOPARTICLE DESIGN AND APPLICATION” (Duke University, priority 2020, published 2023)

What was measured:
[1] = Static and dynamic light scattering (SLS/DLS) of block co-polypeptides; assay type: physicochemical
How it was run: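 Samples at 10 μM in PBS (140 mM NaCl, 10 mM phosphate, 3 mM KCl, pH 7.4), filtered 0.45 μm, measured at 15 °C over 30°–150° in 5° steps. Rh from cumulant fit of DLS, extrapolated to zero angle. Rg and MW from partial Zimm plots of SLS.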

[2] = Temperature-programmed dynamic light scattering; assay type: physicochemical; settings: between 4 °C and 37 °C; micelles 20-37 °C; 10 μM in 140 mM PBS
Method: Temperature-programmed dynamic light scattering experiments were carried out using a Dynapro plate reader (Wyatt Technology; Santa Barbara, Calif.) with samples filtered through 0.45 μm Millex-GV filters. Data were collected at increments of 1° C., and the cumulant fit hydrodynamic radius was taken as the radius. The Tt was defined as the temperature at which aggregates of size hundreds of nanometers were formed.
Each block co-polypeptide was analyzed by dynamic light scattering (DLS) at several temperatures between 4° C. and 37° C. to determine the thermal stability of the micelles, and to determine their radius of hydration (Rh). […] In contrast, RLP40-ELP80 (SEQ ID NO: 84) and RLP40-ELP80-Fn3 (SEQ ID NO: 96) self-assembled into micelles with a Rh of 30 and 32 nm, respectively, between 20-37° C. (FIG. 15).
Therefore, to get a more accurate picture, we monitored the Rh as we slowly cooled the solution. We observed two different overall behaviors. [S]-40-[QHN]-40 (SEQ ID NO: 100) upon cooling underwent a clear unimer to micelle transition at ˜55° C. and a clear micelle to aggregate transition at 28° C. (FIG. 32B). A unimer to micelle transition that is temperature dependent is known as the critical micellization temperature (CMT). As we know from before, this UCST aggregation temperature is dependent on the solution concentration. [S]-80-[QHN]-40 (SEQ ID NO: 101) remained a micelle at the highest temperature we could measure with the instrument. Upon cooling the size of the aggregate increased slightly until a clear aggregate transition at 18° C.

B1: RLP20-ELP80: RLP-ELP block co-polypeptide, (QYPSDGRG)20-(VPG[A:G]G)80 (protein)
chain: QYPSDGRGQYPSDGRGQYPSDGRGQYPSDGRGQYPSDGRGQYPSDGRGQYPSDGRGQYPSDGRGQYPSDGRGQYPSDGRGQYPSDGRGQYPSDGRGQYPSDGRGQYPSDGRGQYPSDGRGQYPSDGRGQYPSDGRGQYPSDGRGQYPSDGRGQYPSDGRGGAGVPGGGVPGAGVPGGGVPGAGVPGGGVPGAGVPGGGVPGAGVPGGGVPGAGVPGGGVPGAGVPGGGVPGAGVPGGGVPGAGVPGGGVPGAGVPGGGVPGAGVPGGGVPGAGVPGGGVPGAGVPGGGVPGAGVPGGGVPGAGVPGGGVPGAGVPGGGVPGAGVPGGGVPGAGVPGGGVPGAGVPGGGVPGAGVPGGGVPGAGVPGGGVPGAGVPGGGVPGAGVPGGGVPGAGVPGGGVPGAGVPGGGVPGAGVPGGGVPGAGVPGGGVPGAGVPGGGVPGAGVPGGGVPGAGVPGGGVPGAGVPGGGVPGAGVPGGGVPGAGVPGGGVPGAGVPGGGVPGAGVPGGGVPGAGVPGGGVPGAGVPGGGVPGAGVPGGGVPGAGVPGGGVPGAGVPGGGVP
[1]
  hydrodynamic radius (Rh): 5.5 nm
[1]; Table 1, 10 μM in PBS, 15 °C
  Rh (nm): 5.5 nm
[2]
  Rh (DLS at several temperatures): ~7 nm
